Data published in patent US20190338009A1 (ZEALAND PHARMA A S, published 2019).
Square brackets hold non-standard residues; d marks the D form. Aib = CC(C)(N)C(=O)O

T1: human GLP-2 receptor (hGLP2-R) (human, UniProt O95838 1-553)
T1 sequence (looked up): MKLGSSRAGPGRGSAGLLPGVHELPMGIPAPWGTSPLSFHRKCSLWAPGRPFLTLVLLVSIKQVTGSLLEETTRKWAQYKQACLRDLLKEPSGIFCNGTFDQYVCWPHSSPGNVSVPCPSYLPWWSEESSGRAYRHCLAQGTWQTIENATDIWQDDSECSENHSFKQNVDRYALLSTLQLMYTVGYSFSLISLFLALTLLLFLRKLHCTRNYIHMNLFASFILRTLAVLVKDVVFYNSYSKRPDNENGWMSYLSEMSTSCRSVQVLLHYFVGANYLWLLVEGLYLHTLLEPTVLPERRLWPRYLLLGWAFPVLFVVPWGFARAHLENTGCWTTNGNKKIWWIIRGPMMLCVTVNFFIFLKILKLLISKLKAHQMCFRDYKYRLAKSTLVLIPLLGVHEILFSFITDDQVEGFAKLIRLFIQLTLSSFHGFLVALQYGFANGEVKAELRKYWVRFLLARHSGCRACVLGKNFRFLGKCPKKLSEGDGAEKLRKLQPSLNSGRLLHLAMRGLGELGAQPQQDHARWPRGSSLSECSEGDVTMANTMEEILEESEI

B1: Compound 5 (peptide)
peptide: H-H[Aib]EGTFTSELATILDEQAARDFIAWLIEHKITD-OH
SMILES: CC[C@H](C)[C@H](NC(=O)[C@H](Cc1ccccc1)NC(=O)[C@H](CC(=O)O)NC(=O)[C@H](CCCNC(=N)N)NC(=O)[C@H](C)NC(=O)[C@H](C)NC(=O)[C@H](CCC(N)=O)NC(=O)[C@H](CCC(=O)O)NC(=O)[C@H](CC(=O)O)NC(=O)[C@H](CC(C)C)NC(=O)[C@@H](NC(=O)[C@@H](NC(=O)[C@H](C)NC(=O)[C@H](CC(C)C)NC(=O)[C@H](CCC(=O)O)NC(=O)[C@H](CO)NC(=O)[C@@H](NC(=O)[C@H](Cc1ccccc1)NC(=O)[C@@H](NC(=O)CNC(=O)[C@H](CCC(=O)O)NC(=O)C(C)(C)NC(=O)[C@@H](N)Cc1c[nH]cn1)[C@@H](C)O)[C@@H](C)O)[C@@H](C)O)[C@@H](C)CC)C(=O)N[C@@H](C)C(=O)N[C@@H](Cc1c[nH]c2ccccc12)C(=O)N[C@@H](CC(C)C)C(=O)N[C@H](C(=O)N[C@@H](CCC(=O)O)C(=O)N[C@@H](Cc1c[nH]cn1)C(=O)N[C@@H](CCCCN)C(=O)N[C@H](C(=O)N[C@H](C(=O)N[C@@H](CC(=O)O)C(=O)O)[C@@H](C)O)[C@@H](C)CC)[C@@H](C)CC
B2: Compound 8 (peptide)
peptide: H-H[Aib]EGSFTSELATILDEQAARDFIAWLILHKITD-OH
SMILES: CC[C@H](C)[C@H](NC(=O)[C@H](Cc1ccccc1)NC(=O)[C@H](CC(=O)O)NC(=O)[C@H](CCCNC(=N)N)NC(=O)[C@H](C)NC(=O)[C@H](C)NC(=O)[C@H](CCC(N)=O)NC(=O)[C@H](CCC(=O)O)NC(=O)[C@H](CC(=O)O)NC(=O)[C@H](CC(C)C)NC(=O)[C@@H](NC(=O)[C@@H](NC(=O)[C@H](C)NC(=O)[C@H](CC(C)C)NC(=O)[C@H](CCC(=O)O)NC(=O)[C@H](CO)NC(=O)[C@@H](NC(=O)[C@H](Cc1ccccc1)NC(=O)[C@H](CO)NC(=O)CNC(=O)[C@H](CCC(=O)O)NC(=O)C(C)(C)NC(=O)[C@@H](N)Cc1c[nH]cn1)[C@@H](C)O)[C@@H](C)O)[C@@H](C)CC)C(=O)N[C@@H](C)C(=O)N[C@@H](Cc1c[nH]c2ccccc12)C(=O)N[C@@H](CC(C)C)C(=O)N[C@H](C(=O)N[C@@H](CC(C)C)C(=O)N[C@@H](Cc1c[nH]cn1)C(=O)N[C@@H](CCCCN)C(=O)N[C@H](C(=O)N[C@H](C(=O)N[C@@H](CC(=O)O)C(=O)O)[C@@H](C)O)[C@@H](C)CC)[C@@H](C)CC
B3: Compound 9 (peptide)
peptide: H-H[Aib]EGTFTDELATILDEQAARDFIAWLIAHKITD-OH
SMILES: CC[C@H](C)[C@H](NC(=O)[C@H](CC(C)C)NC(=O)[C@H](Cc1c[nH]c2ccccc12)NC(=O)[C@H](C)NC(=O)[C@@H](NC(=O)[C@H](Cc1ccccc1)NC(=O)[C@H](CC(=O)O)NC(=O)[C@H](CCCNC(=N)N)NC(=O)[C@H](C)NC(=O)[C@H](C)NC(=O)[C@H](CCC(N)=O)NC(=O)[C@H](CCC(=O)O)NC(=O)[C@H](CC(=O)O)NC(=O)[C@H](CC(C)C)NC(=O)[C@@H](NC(=O)[C@@H](NC(=O)[C@H](C)NC(=O)[C@H](CC(C)C)NC(=O)[C@H](CCC(=O)O)NC(=O)[C@H](CC(=O)O)NC(=O)[C@@H](NC(=O)[C@H](Cc1ccccc1)NC(=O)[C@@H](NC(=O)CNC(=O)[C@H](CCC(=O)O)NC(=O)C(C)(C)NC(=O)[C@@H](N)Cc1c[nH]cn1)[C@@H](C)O)[C@@H](C)O)[C@@H](C)O)[C@@H](C)CC)[C@@H](C)CC)C(=O)N[C@@H](C)C(=O)N[C@@H](Cc1c[nH]cn1)C(=O)N[C@@H](CCCCN)C(=O)N[C@H](C(=O)N[C@H](C(=O)N[C@@H](CC(=O)O)C(=O)O)[C@@H](C)O)[C@@H](C)CC
B4: Compound 3 (peptide)
peptide: H-H[Aib]EGTFTSELATILDEQAARDFIAWLIAHKITD-OH
SMILES: CC[C@H](C)[C@H](NC(=O)[C@H](CC(C)C)NC(=O)[C@H](Cc1c[nH]c2ccccc12)NC(=O)[C@H](C)NC(=O)[C@@H](NC(=O)[C@H](Cc1ccccc1)NC(=O)[C@H](CC(=O)O)NC(=O)[C@H](CCCNC(=N)N)NC(=O)[C@H](C)NC(=O)[C@H](C)NC(=O)[C@H](CCC(N)=O)NC(=O)[C@H](CCC(=O)O)NC(=O)[C@H](CC(=O)O)NC(=O)[C@H](CC(C)C)NC(=O)[C@@H](NC(=O)[C@@H](NC(=O)[C@H](C)NC(=O)[C@H](CC(C)C)NC(=O)[C@H](CCC(=O)O)NC(=O)[C@H](CO)NC(=O)[C@@H](NC(=O)[C@H](Cc1ccccc1)NC(=O)[C@@H](NC(=O)CNC(=O)[C@H](CCC(=O)O)NC(=O)C(C)(C)NC(=O)[C@@H](N)Cc1c[nH]cn1)[C@@H](C)O)[C@@H](C)O)[C@@H](C)O)[C@@H](C)CC)[C@@H](C)CC)C(=O)N[C@@H](C)C(=O)N[C@@H](Cc1c[nH]cn1)C(=O)N[C@@H](CCCCN)C(=O)N[C@H](C(=O)N[C@H](C(=O)N[C@@H](CC(=O)O)C(=O)O)[C@@H](C)O)[C@@H](C)CC
B5: Compound 6 (peptide)
peptide: H-H[Aib]EGSFTSELATILDEQAARDFIAWLIHHKITD-OH
SMILES: CC[C@H](C)[C@H](NC(=O)[C@H](Cc1ccccc1)NC(=O)[C@H](CC(=O)O)NC(=O)[C@H](CCCNC(=N)N)NC(=O)[C@H](C)NC(=O)[C@H](C)NC(=O)[C@H](CCC(N)=O)NC(=O)[C@H](CCC(=O)O)NC(=O)[C@H](CC(=O)O)NC(=O)[C@H](CC(C)C)NC(=O)[C@@H](NC(=O)[C@@H](NC(=O)[C@H](C)NC(=O)[C@H](CC(C)C)NC(=O)[C@H](CCC(=O)O)NC(=O)[C@H](CO)NC(=O)[C@@H](NC(=O)[C@H](Cc1ccccc1)NC(=O)[C@H](CO)NC(=O)CNC(=O)[C@H](CCC(=O)O)NC(=O)C(C)(C)NC(=O)[C@@H](N)Cc1c[nH]cn1)[C@@H](C)O)[C@@H](C)O)[C@@H](C)CC)C(=O)N[C@@H](C)C(=O)N[C@@H](Cc1c[nH]c2ccccc12)C(=O)N[C@@H](CC(C)C)C(=O)N[C@H](C(=O)N[C@@H](Cc1c[nH]cn1)C(=O)N[C@@H](Cc1c[nH]cn1)C(=O)N[C@@H](CCCCN)C(=O)N[C@H](C(=O)N[C@H](C(=O)N[C@@H](CC(=O)O)C(=O)O)[C@@H](C)O)[C@@H](C)CC)[C@@H](C)CC
B6: Compound 4 (peptide)
peptide: H-H[Aib]EGSFTSELATILDEQAARDFIAWLIEHKITD-OH
SMILES: CC[C@H](C)[C@H](NC(=O)[C@H](Cc1ccccc1)NC(=O)[C@H](CC(=O)O)NC(=O)[C@H](CCCNC(=N)N)NC(=O)[C@H](C)NC(=O)[C@H](C)NC(=O)[C@H](CCC(N)=O)NC(=O)[C@H](CCC(=O)O)NC(=O)[C@H](CC(=O)O)NC(=O)[C@H](CC(C)C)NC(=O)[C@@H](NC(=O)[C@@H](NC(=O)[C@H](C)NC(=O)[C@H](CC(C)C)NC(=O)[C@H](CCC(=O)O)NC(=O)[C@H](CO)NC(=O)[C@@H](NC(=O)[C@H](Cc1ccccc1)NC(=O)[C@H](CO)NC(=O)CNC(=O)[C@H](CCC(=O)O)NC(=O)C(C)(C)NC(=O)[C@@H](N)Cc1c[nH]cn1)[C@@H](C)O)[C@@H](C)O)[C@@H](C)CC)C(=O)N[C@@H](C)C(=O)N[C@@H](Cc1c[nH]c2ccccc12)C(=O)N[C@@H](CC(C)C)C(=O)N[C@H](C(=O)N[C@@H](CCC(=O)O)C(=O)N[C@@H](Cc1c[nH]cn1)C(=O)N[C@@H](CCCCN)C(=O)N[C@H](C(=O)N[C@H](C(=O)N[C@@H](CC(=O)O)C(=O)O)[C@@H](C)O)[C@@H](C)CC)[C@@H](C)CC
B7: Compound 7 (peptide)
peptide: H-H[Aib]EGSFTSELATILDEQAARDFIAWLIYHKITD-OH
SMILES: CC[C@H](C)[C@H](NC(=O)[C@H](Cc1ccccc1)NC(=O)[C@H](CC(=O)O)NC(=O)[C@H](CCCNC(=N)N)NC(=O)[C@H](C)NC(=O)[C@H](C)NC(=O)[C@H](CCC(N)=O)NC(=O)[C@H](CCC(=O)O)NC(=O)[C@H](CC(=O)O)NC(=O)[C@H](CC(C)C)NC(=O)[C@@H](NC(=O)[C@@H](NC(=O)[C@H](C)NC(=O)[C@H](CC(C)C)NC(=O)[C@H](CCC(=O)O)NC(=O)[C@H](CO)NC(=O)[C@@H](NC(=O)[C@H](Cc1ccccc1)NC(=O)[C@H](CO)NC(=O)CNC(=O)[C@H](CCC(=O)O)NC(=O)C(C)(C)NC(=O)[C@@H](N)Cc1c[nH]cn1)[C@@H](C)O)[C@@H](C)O)[C@@H](C)CC)C(=O)N[C@@H](C)C(=O)N[C@@H](Cc1c[nH]c2ccccc12)C(=O)N[C@@H](CC(C)C)C(=O)N[C@H](C(=O)N[C@@H](Cc1ccc(O)cc1)C(=O)N[C@@H](Cc1c[nH]cn1)C(=O)N[C@@H](CCCCN)C(=O)N[C@H](C(=O)N[C@H](C(=O)N[C@@H](CC(=O)O)C(=O)O)[C@@H](C)O)[C@@H](C)CC)[C@@H](C)CC

Assays:
[1] = molecular target: T1, human GLP-2 receptor (hGLP2-R); test: cell-based or functional assay
[2] = molecular target: human glucagon-like peptide 1 receptor (GLP-1R) (human, UniProt P43220 24-463); test: cell-based or functional assay

Binder	EC50 GLP-2 (nM); cAMP AlphaScreen, HEK293 cells expressing human GLP-2R [1] [nM]	EC50 GLP-1 (nM); cAMP AlphaScreen, HEK293 cells expressing human GLP-1R [2] [nM]
B1	0.067	0.0098
B2	0.084	0.021
B3	0.041	0.007
B4	0.036	0.0074
B5	0.047	0.014
B6	0.044	0.015
HGDGSFSDEMNTILDNLAARDFINWLIQTKITD [Teduglutide]	–	39
B7	0.11	0.017
